According to the DeepSol protein solubility set:

test: soluble on expression in E. coli; label from the status in PepcDB or PDB records

Sequence | soluble on expression in E. coli
MNAAIHPRPAAERAPSYYAATLNEETDYPTLLGAVTVDIAIIGGGFTGVATAVELAERGYKVALVETHRIGWGASGRNGGQVTGSLSGDAAMHKQMRQWLGAEVEDFIWHLRWRGHEIIRQRVEKYGIACDLRHGHLHAAMKASHMGELQASYEEAVRRGMGDQVVLLDKAGVQAHLETELYCGALKNTRNMHLHPLNLCIGEARAAAGLGALIFEHSEVLDIVHGPRPAVITREGRIEAQQILLAGDVYHKLERRQLKGMIFPAMGGIVTTRPLGELAREINPQGLAVYDCRFVLDYYRPTADGRLLFGGGANYSGRDSRDITAELRPCIERTFPRLKGVEIEFQWSCAMGIVMNRIPQLGKLSDNVWYCQGYSGHGVATSHIMGEIMAKAMSGSLEQFDTFARCKHLRVPLGDLFGNPMLAAGMWYYQLMEKLRLEHHHHHH | not soluble
RSEYVAPRSVWEARLAQVWEQVLNVPQVGALDDFFALGGHSLRAMRVLSSMHNEYQVDIPLRILFEKPTIQELAAFIEETAKGNVFSIEPVQKQAYYPVSSAQKRMYILDQFEGVGISYNMPSTMLIEGKLERTRVEAAFQRLIARHESLRTSFAVVNGEPVQNIHEDVPFALAYSEVTEEEARELVSSLVQPFDLEVAPLIRVSLLKIGEDRYVLFTDMHHSISDGVSSGILLAEWVQLYQGDVLPELRIQYKDFAVWQQEFSQSAAFHKQEAYWLQTFADDIPVLNLPTDFTRPSTQSFAGDQCTIGAGKALTEGLHQLAQATGTTLYMVLLAAYNVLLAKYAGQEDIIVGTPITGRSHADLEPIVGMFVNTLAMRNKPQREKTFSEFLQEVKQNALDAYGHQDYPFEELVEKLAIARDLSRNPLFDTVFTFQNSTEEVMTLPECTLAPFMTDETGQHAKFDLTFSATEEREEMTIGVEYSTSLFTRETMERFSRHFLTIAASIVQNPHIRLGEIDML | soluble
MAEEGYKVVLNVYDLSNGLARQLSTSFLGKPIEAIWHTGVVVYGNEYFFGGGIQSLAAGRTPYGRPVRVVEMGETHIPREVFEDYLRDISPRYTAETYRLLSHNCNNFSNEVAQFLVGAGIPDYILNLPAEVMSSPMGPLIMPMIQNLESTLRTNAAPQATQFVPSSVPPPPPPQNKPGEGSSSSKQEDKAAKAKQGSAADPLGGARGKVQEEVMREFAAIMASGTLRASEAAALAMRRVMERHGNATMQQS | soluble
MNMLEKVQSQLEHLSKSERKVADVILAAPGRSIHLSIAMLAQEANVSEPTVNRFCRSMNTRGFPDFKLHLAQSLANGTPYVNRNVDEDDSVEAYTGKIFESAMASLDHVRQSLDKSAVNRAVDLLTQAKKIAFFGLGSSAAVAHDAMNKFFRFNVPVIYSDDIVLQRMSCMNCSDDDVVVLISHTGRTKSLVELAQLARENDAMVIALTSAGTPLAREATLAITLDVPEDTDIYMPMVSRLAQLTVIDVLATGFTLRRGAKFRDNLKRVKEALKESRFDKELLIKSDDR | not soluble
MTTAARRPAPTTAGAGWDAGVGALVNPSRRRGGTLRLVSSADVDSLDPARTYYVWVWLLQRLLNRTLMAYPTDPGPAGLVPAPDLAEGPGEVSDGGRTWTYRLRRGLRYDDGTPITSDDVRHAVQRVFAQDVLPGGPTYLIPLLDDPERPYPGPYRTDEPLRSVLTPDEHTIVFRLTRPFSDFDHLMAQPCAAPVPRRSDTGADYGRDPRSSGPYRVARHEPDTLLHLERNPHWDRATDPIRPALPDRVELTIGLDVDVLDARLIAGEFDINLEGRGLQHAAQRRATADEVLRSHTDNPRTSFLHFVAMQPHIPPFDNVHVRRAVQYAADKILLQDARGGPVNGGDLTTALFPPTLPAHQDLDLYPTGPDLRGDLDAARAELAAAGLPDGFRAVIGTQRGKFRLVADAVVESLARVGIELTVKELDVATYFSLGAGHPETVREHGLGLLVTDWGADFPTEYGFLAPLVDGRQIKRNGGNWNLPELDDPEVNALIDETLHTTDPAARAELWRAVERRVMEHAVLLPLVHDKTLHFRNPWVTNVYVHPAFGLYDIQAMGLAEED | soluble
MCELDILHDSLYQFCPELHLKRLNSLTLACHALLDCKTLTLTELGRNLPTKARTKHNIKRIDRLLGNRHLHKERLAVYRWHASFICSGNTMPIVLVDWSDIREQKRLMVLRASVALHGRSVTLYEKAFPLSEQFQRKLMTNFLEHHHHHH | not soluble
MTDRYTIHSQLEHLQSKYIGTGHADTTKWEWLVNQHRDSYCSYMGHFDLLNYFAIAENESKARVRFNLMEKMLQPCGPPADKPEEN | soluble
GDYERILYELEGMYQFGKRSHLDISAFSIASGVGYQLPLPMNPQFWLRYDFASGDKNHRDGRSNTFNQLFPFGHYYFGYIDQVGRQNIHDFNAQFTLHPQPWVTFLGQYHRFYLANKRDYLYNAAGAGTIRDITGQSGSHVGDEIDFTINFHLSRHQDVLLGYSKLFTGEFLKNTRPGVSPDLFYAQYNFRF | not soluble
